Test: soluble on expression in E. coli; label from the status in PepcDB or PDB records

Sequence	soluble on expression in E. coli
MQRLSGLDASFLYLETSTQLLHVCGVIVLDVSTVPGGYTFAQLKAELGARTEAIPSFRRKLQDSKFNLDHPVWVEDTDFDIDRHCHRVALPAPGGRDELAELCGDIAGIPLDRARPLWEMWVIEGLEDGSVAVMSKMHHAGVDGITGANMMAQLCGLEPDAPRPGPDDSAESAGQASTLDIAVGGLLAVASRPAKLLRIVPQSLTLLPRWIGRARRGAAMPAPFTAPRTSLNGTLTSHRNLAFTQLDLEKVKTVKDAFDVKVNDVVLALCSGALRKYLQDRRELPDKSLVAIVPVSVHGKSDRPGTNQVSGMFTQLGTQIEDPAERLLAIGEHNSTSKEHNETLGASLLQDWSQFAGQAVFGTAMRLYSTLGLAERHPVVHNLVISNVPGPSVPLYFLGALIKAMYPLGPIFHGAGLNVTVMSLNGQLDVGLMSCPELAPHLWDLVDAFPAALDELVEAAGNRS	not soluble
MSLTADPPACTVPAAGVSSTHKLVNGGAEKIVFKIKSSNNNEYRIAPVFGFVDPSGSKDVVITRTAGAPKEDKLVVHFASAPADATDAQAAFVAVAPAGTVTIPMSATA	soluble
MLFNLLGKPLKICGCSPRTGWYLDGYCKTDQSDLGNHSICSVVTDTFLKYTKSQGNNLIDPNLLMEFPGLKAGDHWCLCAERWEQARIDGVAPPIIIESTNLSATQVIPLNILKSFAFEII	not soluble
MTEKKIDFKKEEKKFYAPKRKPERIFVPEMNFLMVDGKGDPDGEEYQKAVQSLYAIAYTIKMSKMGETRLDGYSDFVVPPLEGFWWSEGKFDLKDRDAWLWTSILRQPDFVTEEVLEWAKEVARKKKPDVDTSRVKLVRFEEGECVQMMHVGPFSEEVHTVAEMHQFMETEGLRNDTGAIRKHHEIYLSDPRKANPEKMKTILRLPVS	soluble
MAHHHHHHMKPLAPFVCRLPSRRILRVRGTDAHDFLQGIFTNDLRELHPAGSMYGCFLYFTGRVLCDAHLYQCKQVHEGQASILVDVHERSATELLDHLTEMKMRKKVHIDDVGKELVVLAALEETSADAQRSRDSASGCDARESSVTSLSPETLEERHTECFLDPRNDALFPRPPPPSSSSPPAAVTSPSFCLRKCVVPATWAPPLSSPDSYTTLLYSRGIGEGPDVFKCNKSLPFEGNLDFLKGVSFHKGCYVGQELTHRTHVMLVTRKRTVPLHFGPANVDPPAAGIITDEGAVTKTWPVEVGEPLYSAAREKIGEVTGVCGQVGIGLFRLRYVDKATHTVPGLQLKDGTPVQTHLPDWWPRKDVKKLLQNNS	soluble
METQDHTLYVLLGPTGVGKTDLSLDIAERLGSPIISADSRQIFRELPIGTAAPTPEQRAKVPHLFVGTHSVRDYYSAGMYEVEVLEALKELFRKYRGVLLTGGSMMYIDAVCRGIDDIPDPFPEVREELYARYAAEGLDGILAQLRLLDPDYYAKVDRRNYKRVIHGLEICLSTGRPFSSFHRHEAKERPFRIVKIGLYREREELCKRIDARVLEMMEQGLEEEARAVYPLRHLNALNTVGYKEMFEYFDGSIDRAEAVRRIQRNSRVYARKQMTWFRRDSTIRWFHPEADKGTVLTLVT	not soluble
MNRSGQRLIVSAPRQIAFSTAVRQLSATPIQCQNESENSEPQKQGWISRLLKGQSMDPSSWQKQSHSSLLSNSELMYEFMTHNYRPGEQDAYLDAFGKYKNEMNQKNPSIELVGSWTCAYGRTRDQAIHLWRHNKGYEDVDSSISLHGKDSGIRAADNDVAKLCGRRKNLIVKSFSYWREPEQRPPNHVYDLRSYVLQPGTMIDWASAWAKGIQYRREANQDVGGFFAQVGQLYVVYHIWAYPSMSGRNDTRHATWAKPGWDATVANTVPLIKKMQSKILTPTKYSQLE	not soluble
ISASEDMFEDEDLIPRQNVVITLTHHGYIKRLPISTYRSQKRGGRGIQGMGTNEDDFVQHLFTTNSHHTILFFTNKGKVYRLKGYEIPELGRTAKGIPIINLLQIEQDEYISTIIPIEEFTED	soluble
MPPPLPYDAMRSVWTDTAAPAMATVPLAGHADCDVAIVGAGITGLSAALHLAERGLRACVLEARDPGWGASGRNGGQVIPGIKHDPDEILARHGRERGEPLLHMVGTAADTVFDLIDRYGLDCHPVRRGWIQPAHSRQALDAVLARARQWRARGADVAELDAGDVARRLGTGRFLGGWIDRRAGSIQPLRYTRGLLRAALSLGAAVHGQSPVVALQREGSRWLVRCAQGASVRAEHVLIATNAYTDDLWPGLRRTVIAANSFIVATGPLDPALAPAILPGGEVASDSRRLLLYFRRDADRRFILGGRGRFADPVSDADWNHLVRGARLLYPQLADTPFVHRWSGRVALTRDFVPHVHQPSPNLRIVLGYNGRGVALATQMGNYLAREISGGEPLPYPVTPIAPIPLHGLKRLYIGLAVAYYGLCDRISLEHHHHHH	not soluble
MSYNGSYHQNHHSTLQVKSKFDSEWRRFSIPMHSASGVSYDGFRSLVEKLHHLESVQFTLCYNSTGGDLLPITNDDNLRKSFESARPLLRLLIQRRGESWEEKYGYGTDSDKRWKGISSLMAQKPPKRSYSISNPEDFRQVSAIIDVDIVPEAHRRVRLCKHGQERPLGFYIRDGTSVRVTERGVVKVSGIFISRLVDGGLAESTGLLGVNDEVLEVNGIEVLGKTLDQVTDMMVANAHNLIITVKPANQRNTLSRGPSQQGTPNASEMSAATAAATGGIQRPMKMNGSSDGSYHPKQHDANDSDSGED	not soluble
MSLIISISNLSPKSNRSQTKDSQISKWSYFSDCILRSTGFPAEWIEKLCFHKTTTMFDLCYRTEQSLNELVERLKTLEQTCHIPSNARQDWQRIRKLVGKRKKVTDEFIHLMEQKGFDQSLTQEIESYERKRRLQEKNWTKARESFEAELAEKQLFLQEIYKNPRLQEAIFQQSPSMYKNAVVPYVHSSLQKRNTNIKRIERQLISYLQRLCTKNETTSFFGPIQYGVLTSEQQDIEYNFNQKETERRAFMPYWSIKVLAAQMKECDVFFPYLNVKLSYQYTKTGDSIHSPILEKMVKFPKPYADIIKHLTYENQSIEQLAKKLSQPVAWLAKKLRLLEKKRLILIEIPLSITEPDSLNELRSWILKIKDVEHPDLSLWQERLEWLWKVKQAYPYMTLGQKQELFHKLESTFTEWTGEQPRRLGGEIYADRNLLYEECHGPLNNIKIGGSIKHVLKQDVPKWLSICAKHGEQRRKQEQALAQEIFKMMYPNEDSVPFLKFVHDLSNHPDVHTWEKRWQSIKTEIEEAITHEVASNPKSVVHLSLDYQDFDRDMAWLTSPDLMIAKKDDDSYQVILGEIHDTIMVWGWALQFHPEKDRVNEQLVKKIQKSTQHLRMLNMLSSKRFKIVPFEYPGTTIQMNSFSNSPNEKIPLSQLKVTYTKEGLALTLPDHEEVFYTYNGELNTMVHSFFSLPRAVSFSIRTGESTPRLMLGDLVVQRAKWHISKQDVWSKKHTGSSIELFYEAYRFHLKESLPKEGFAKLPGQPKPVYVNFTSYFLIEMLEGLWPDGENCTFSEMLPNLSELWLSKEDQKTHTAEIRLSYFVERSEGHHHHHH	soluble
MGTGSGGPIGVSPFHSRGALKGFVISGRWPDSTKEWAQLLMVAVRVASLPGLLSTTTVFGAREELPDEPEPGTVGLVLAEGTVFGESAIQPGYFADHQPPALLMLHPPSETTPSLPECTGAASGCVLLPGLPYLGLEHRAAWVEAEADGTITSMVSRVGVDPISHPDTAILAMLLAA	soluble
MSLDFAKQGPIVIGGVGGSGTRLIAEIVMDMGFYLGGMLNQSKDLLYFSLLFKRPTWFSKVVTSNEQEIFRGLKILENRLTTQKELTGKDIKFIEKAAQTYRNGDLLAQKIKKNMLFPDPINRQLYRGWGWKEPNAHLFLPYIHRYFPNGKYIHVIRNGLNMAFSKNQQQLFNWGPLFGVTIPNNPMKIPNASLTYWIKANERAVMYGTEQMKGRFLLIQFDQLCVNPTPQLQKLAEFLAVDDLAIDEWSEKIDPAAAASKYKEGHHHHHH	soluble
MEVYSKLRAPPSSRMILRLDGRGFHRLTESLDFDRPYDEAFRDLMIRTCLDLMEEFSPSLIYTFSDEINVLLDSVPFAGRVEKLDSVFSGFASSSFTRGALEAGFSPVKPVSFDCRVIPISSDIVPEYFRSRQDESWRNCLNSYAYWTLRREVGARRAAERLRGLKSDSLHDLLFERGVNISRVPAWQRRGVGVYRVPHRVRGYNPIRDEEVSAVRMRVKVDLELPLFTDEFFEGLMRLEHHHHHH	soluble
MQHLEAVRNILGDVLNLGERKHTLTASSVLLGNIPELDSMAVVNVITALEEYFDFSVDDDEISAQTFETLGSLALFVEHKLSH	soluble
